Results: PMC2834479 (International journal of pharmaceutics, 2010)
Read-outs that look alike come from different tables or passages of the source. Marks after values point to notes of the source that are not given here.

Assays:
[1] = system: anesthetized, hyperglycemic rats; experiment: Blood glucose levels; format: in vivo, rat; details: nose drops, 2 units of insulin, mean +/- SEM, n=3-6; for Blood Glucose AUC 0-180: trapezoidal rule
[2] = rat, in vivo
[3] = system: cells that line the nasal cavity; details: 0.125% TDM, ref Arnold et al., 2004; cited from earlier work
[4] = Plasma insulin levels after nasal administration of insulin nose drops; details: rats, 2 units of insulin, with 0.125% TDM, human insulin RIA, mean +/- SEM, n = 3-6
[5] = rat, in vivo; remark: listed apart in the source
[6] = with 0.125% TDM, basal glucose 303 to 393 mg/dl

Compound | Blood Glucose at 60 minutes after Insulin administration [1, 6] | Blood Glucose AUC 0-180 [1, 6] | Plasma Insulin AUC 0-180 [2] | Plasma Insulin T-max [2] [min] | Toxicity to the cells that line the nasal cavity [3] | Blood Glucose AUC 0-180 ([1]; without TDM (0%)) [mg·min/dL] | Blood Glucose at 60 minutes after Insulin administration ([1]; without TDM (0%), upper limit of glucometer = 600 mg/dL) | Plasma Insulin C-max [4] | Plasma Insulin AUC 0-180 ([4]; up to 180 minutes, trapezoidal rule) | Absorption of insulin from the nasal cavity (in words) [5] | Plasma Insulin C-max [2]
Lispro Insulin | 160 +/- 27 ^a mg/dL | 39863 +/- 3200 ^a mg/dL × minutes | 41820 +/- 3300 ^a uU/ml × minutes | 15 | – | – | – | – | – | – | –
CCCCCCCCCCCCCCO[C@@H]1O[C@H](CO)[C@@H](O[C@H]2O[C@H](CO)[C@@H](O)[C@H](O)[C@H]2O)[C@H](O)[C@H]1O [TDM, tetradecyl-β-D-maltoside] | – | – | – | – | minimal toxicity | – | – | – | – | – | –
Regular Insulin: regular insulin (Novolin R®), Novo Nordisk | 135 +/- 22 ^a mg/dL | 32745 +/- 2400 ^a mg/dL × minutes | – | – | – | 93728 ± 2600 | 600 +/- 10 ^** mg/dL | 874 +/- 56 ^a uU/ml | 33398 +/- 2500 ^a uU/ml × minutes | – | –
Aspart Insulin | 205 +/- 13 ^a, ^b mg/dL | – | 55238 +/- 4600 ^a, ^b uU/ml × minutes | 15 | – | – | – | – | – | absorbed from the nasal cavity | –
Glargine Insulin | 183 +/- 26 ^a mg/dL | 36345 +/- 3600 ^a mg/dL × minutes | 67170 +/- 4800 ^a, ^b uU/ml × minutes | 60 | – | – | – | – | – | absorbed from the nasal cavity | 500 +/- 52 ^a, ^b uU/ml
